Measurements as given in publication PMC3947954.

Assays:
[1] = molecular target: HIP14-GFP (Huntingtin Interacting Protein 14, GFP tagged) (human (from the printed RefSeq entries)) (UniProt Q8IUH5); test: co-IP; COS-7 cells transiently co-transfected, harvested after 24 h; lysed in 1% SDS TEEN, diluted in four volumes 1% TritonX-100 TEEN; GFP immunoprecipitated overnight (goat anti-GFP, Dynabeads Protein G); blots probed for HTT and GFP; HTT band as percent of the GFP band, normalized to 15Q HTT 1–548
[2] = molecular target: HIP14L-GFP (Huntingtin Interacting Protein 14-like, GFP tagged) (human (from the printed RefSeq entries)) (UniProt Q8IUH4); test: as above
UniProt Q8IUH4, sequence (Q8IUH4 whole entry): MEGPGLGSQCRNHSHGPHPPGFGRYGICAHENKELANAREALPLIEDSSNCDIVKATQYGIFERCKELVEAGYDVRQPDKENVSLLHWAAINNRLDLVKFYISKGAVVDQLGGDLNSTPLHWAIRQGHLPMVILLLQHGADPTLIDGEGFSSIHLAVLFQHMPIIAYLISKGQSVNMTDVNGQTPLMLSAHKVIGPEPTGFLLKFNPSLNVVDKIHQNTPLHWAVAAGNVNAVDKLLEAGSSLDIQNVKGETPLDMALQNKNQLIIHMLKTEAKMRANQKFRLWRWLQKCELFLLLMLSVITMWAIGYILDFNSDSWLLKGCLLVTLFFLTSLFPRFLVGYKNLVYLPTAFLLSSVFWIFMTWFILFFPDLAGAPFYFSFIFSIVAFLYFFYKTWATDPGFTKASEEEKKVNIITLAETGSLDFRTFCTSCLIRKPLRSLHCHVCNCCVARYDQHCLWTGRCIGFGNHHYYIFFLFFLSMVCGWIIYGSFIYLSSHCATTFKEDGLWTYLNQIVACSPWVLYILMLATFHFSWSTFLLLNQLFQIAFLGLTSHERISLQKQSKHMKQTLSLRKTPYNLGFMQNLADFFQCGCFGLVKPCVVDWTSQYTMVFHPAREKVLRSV

UniProt Q8IUH5, sequence (Q8IUH5 whole entry): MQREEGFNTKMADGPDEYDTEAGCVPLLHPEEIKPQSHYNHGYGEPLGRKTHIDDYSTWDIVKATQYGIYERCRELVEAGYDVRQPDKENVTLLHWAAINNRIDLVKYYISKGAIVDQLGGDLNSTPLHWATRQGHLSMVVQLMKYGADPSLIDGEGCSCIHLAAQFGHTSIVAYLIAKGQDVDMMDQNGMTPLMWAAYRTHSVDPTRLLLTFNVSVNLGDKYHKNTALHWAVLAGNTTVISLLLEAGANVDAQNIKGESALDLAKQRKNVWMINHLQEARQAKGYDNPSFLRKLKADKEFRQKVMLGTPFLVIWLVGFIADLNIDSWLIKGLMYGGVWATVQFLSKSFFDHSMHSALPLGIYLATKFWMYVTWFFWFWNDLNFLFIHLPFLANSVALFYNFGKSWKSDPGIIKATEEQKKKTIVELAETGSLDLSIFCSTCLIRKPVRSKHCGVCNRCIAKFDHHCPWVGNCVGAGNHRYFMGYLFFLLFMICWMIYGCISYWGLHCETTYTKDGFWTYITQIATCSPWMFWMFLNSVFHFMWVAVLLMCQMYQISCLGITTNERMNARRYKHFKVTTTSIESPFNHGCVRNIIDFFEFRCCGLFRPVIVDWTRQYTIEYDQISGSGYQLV

## 128Q HTT 1–548 (domain or fragment)
[1]
  percent less co-immunoprecipitated than 15Q HTT 1–548: 57%
[2]
  percent decrease of interaction against 15Q HTT 1–548: 54%
